Key:
[1] = target: CmTic110B (Cyanidioschyzon merolae 10D); assay: SEC + other: small-angle X-ray scattering
[2] = target: CmTic110C (Cyanidioschyzon merolae 10D); assay: SEC + other: small-angle X-ray scattering

Substance	stoichiometry N [1]	stoichiometry N [2]
CmTic110B (domain or fragment)	2	
CmTic110C (domain or fragment)		2

Reference: publication PMC3823011
